Assays:
[1] = biological target: human CCR5 (untagged; endogenous on human leukocytes, parent of the CCR5/CCR2b chimeras, on U87-CD4-CCR5 cells) (human) (UniProt P51681); test: inhibition of ^125I-RANTES binding to activated T cells (CD3 blasts) by 10 µg/ml mAb
[2] = biological target: human CCR5 (untagged; endogenous on human leukocytes, parent of the CCR5/CCR2b chimeras, on U87-CD4-CCR5 cells) (human) (UniProt P51681); test: inhibition of ^125I-MIP-1α binding to activated T cells (CD3 blasts) by 10 µg/ml mAb
[3] = biological target: FLAG-tagged human CCR5 expressed on L1.2 murine pre-B lymphoma cells (human) (UniProt P51681); test: cell-based or functional assay
[4] = biological target: human CCR5 (untagged; endogenous on human leukocytes, parent of the CCR5/CCR2b chimeras, on U87-CD4-CCR5 cells) (human) (UniProt P51681); test: cell-based or functional assay

Question: Which results are given for murine monoclonal antibody 2D7?
Answer: percent inhibition of ^125I-RANTES binding [1]: 95%; percent inhibition of ^125I-MIP-1α binding [2]: 85%; mAb concentration giving complete inhibition of chemotaxis of CCR5 L1.2 cells to RANTES, MIP-1α and MIP-1β [3]: 20 µg/mL; percent inhibition of RANTES and MIP-1α chemotactic responses of T cell lines [4]: 60 to 80%; percent inhibition of chemotaxis of activated, IL-2 maintained T cells to MIP-1α [4]: 60 to 80%

Reference: US6528625
